Where a chain is given by its changes, count along the chain named.
B1: TNT-203 (antibody, human IgG1, kappa)
heavy: not shown
light: EIVLTQSPATLSLSPGERATLSCRASQSVSSYLAWYQQKPGQAPRLLIYDASNRATGIPARFSGSGSGTDFTLTISSLQAEDFATYYCQQSYSTRFGGGTKVEIKRTVAAPSVFIFPPSDEQLKSGTASVVCLLNNFYPREAKVQWKVDNALQSGNSQESVTEQDSKDSTYSLSSTLTLSKADYEKHKVYACEVTHQGLSSPVTKSFNRGEC
B2: TNT-207 (antibody, human IgG1, kappa)
heavy: not shown
light: DIQMTQSPSSLSASVGDRVTITCRASQGISNYLAWFQQKPGKAPKSLISAASSLQSGVPSRFSGSGSGTDFTLTISSLQPEDFATYYCLQHDSFPITFGGGTKLEIKRTVAAPSVFIFPPSDEQLKSGTASVVCLLNNFYPREAKVQWKVDNALQSGNSQESVTEQDSKDSTYSLSSTLTLSKADYEKHKVYACEVTHQGLSSPVTKSFNRGEC
B3: TNT-212 (antibody, human IgG1, kappa)
heavy: not shown
light: DIQMTQSPSSVSASVGDRVTITCRASQGISGWLAWYQQKPGKAPKFLIYAASTLQSGVPSRFSGSGSGTDFTLTISSLQPEDFATYYCQQANSFPPTFGGGTKVEIKRTVAAPSVFIFPPSDEQLKSGTASVVCLLNNFYPREAKVQWKVDNALQSGNSQESVTEQDSKDSTYSLSSTLTLSKADYEKHKVYACEVTHQGLSSPVTKSFNRGEC
notes: also called TNT-154

Legend:
[1] = molecular target: T1, Human nectin-4-IgV-6His (TNT-252) (human, UniProt Q96NY8 32-147); assay: SPR Biacore 8K, mAb on protein A
T1 construct: entry includes the 6His tag
T1 sequence: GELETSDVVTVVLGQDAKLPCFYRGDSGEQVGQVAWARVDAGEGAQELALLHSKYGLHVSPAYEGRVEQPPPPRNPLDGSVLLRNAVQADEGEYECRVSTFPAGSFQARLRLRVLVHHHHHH
Experimental: (§1) The running buffer was 10 mM HEPES, pH 7.4, 150 mM NaCl, 3 mM EDTA, 0.05% (v/v) Surfactant P20 (HBS-EP+). […] The nectin-4 analytes were injected in either single-cycle kinetics or multi-cycle kinetics mode at nominal starting concentrations of 300 nM or 900 nM with 3-fold serial dilutions. Association times were monitored for 120 s, and dissociation times were monitored 1800 s at 30 μL/min flow rate. The surfaces were regenerated with 10 mM glycine at pH1.7 or 75 mM phosphoric acid at pH1.6 for two pulses of 15 s at 30 μL/min flow rate.
(§2) The data were processed and analyzed with Biacore 8K Evaluation Software Version 3.0.12.15655 (Cytiva, Global Life Sciences Solutions USA LLC, Marlborough, MA). […] The responses from the nearest buffer blank injection were then subtracted from the reference subtracted data (2-1) to yield double-referenced data. These double-reference data were fit to a simple 1:1 Langmuir binding model with mass transport to determine the apparent association (ka) and dissociation rate constants (kd). The apparent equilibrium dissociation constant or affinity constant was then calculated based on their ratio as (KD=kd/ka).

[2] = molecular target: T2, Cyno nectin-4 ECD-6His (TNT-255) (cynomolgus, UniProt Q96NY8 32-349 (human entry)); assay: SPR Biacore 8K, mAb on protein A
T2 construct: entry includes the 6His tag
T2 chain: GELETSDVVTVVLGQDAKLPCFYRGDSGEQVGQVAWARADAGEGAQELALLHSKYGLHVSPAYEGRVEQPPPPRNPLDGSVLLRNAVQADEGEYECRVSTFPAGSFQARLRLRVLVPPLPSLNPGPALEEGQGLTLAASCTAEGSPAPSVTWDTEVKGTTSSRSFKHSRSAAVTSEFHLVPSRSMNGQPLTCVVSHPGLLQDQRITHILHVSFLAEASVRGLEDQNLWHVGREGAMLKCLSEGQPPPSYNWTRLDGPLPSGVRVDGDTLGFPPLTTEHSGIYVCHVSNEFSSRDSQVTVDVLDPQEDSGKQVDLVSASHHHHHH
Experimental: as §1, §2

[3] = molecular target: T3, Mouse nectin-4 ECD-6His (TNT-250) (mouse, UniProt Q8R007 31-347); assay: SPR Biacore 8K, mAb on protein A
T3 construct: entry includes the 6His tag; also called mouse nectin-4-LCD
T3 sequence: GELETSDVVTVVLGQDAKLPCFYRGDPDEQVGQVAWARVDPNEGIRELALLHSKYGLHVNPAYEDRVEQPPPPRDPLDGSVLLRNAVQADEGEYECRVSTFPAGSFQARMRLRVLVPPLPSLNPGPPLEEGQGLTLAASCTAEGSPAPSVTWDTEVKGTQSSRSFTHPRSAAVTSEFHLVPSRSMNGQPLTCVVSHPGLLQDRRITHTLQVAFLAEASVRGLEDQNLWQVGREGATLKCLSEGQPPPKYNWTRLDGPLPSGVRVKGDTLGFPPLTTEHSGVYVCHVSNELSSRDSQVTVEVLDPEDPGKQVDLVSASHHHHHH
Experimental: as §1, §2

[4] = molecular target: T4, Human nectin-4 ECD-6His (TNT-175) (human, UniProt Q96NY8 32-349); assay: SPR Biacore 8K, mAb on protein A
T4 construct: the entry holds the extracellular domain with the C-terminal 6His tag
T4 sequence: T2 chain with A39V, V230I
Experimental: as §1, §2

[5] = molecular target: T1, Human nectin-4-IgV-6His (TNT-252); assay: SPR Biacore 8K
Experimental: (§3) Further testing of select nectin-4 antibodies to human, mouse and cyno nectin-4. Additional assessment of the nectin-4 antibodies was performed to measure binding to human, mouse, and cynomolgus nectin-4. Biacore 8K (Cytiva, Marlborough, MA) was used to further characterize binding of four of the nectin-4 monoclonal antibodies.
(§4) All experiments were performed at 25° C. temperature and in HBS-EP+ run buffer (10 mM HEPES, pH 7.4, 150 mM NaCl, 3 mM EDTA, 0.05% Tween-20). The antibodies were captured or immobilized on a Biacore chip either through amine-coupling method on a CM5 or captured by ProteinA chip or captured by anti-mouse polyclonal antibody or anti-human polyclonal antibody. […] The data were processed and analyzed in Biacore Insight Evaluation Software using double-reference subtraction of the data and then fitted to a simple Langmuir binding model using global kinetic rate constants for association (Kₐ), dissociation (Kd), and Rₘₐₓ values per sample. Fit quality was determined by inspection of the residuals and of statistical T values and the equilibrium dissociation (or affinity) constant was deduced by the ratio of the kinetic rate constants. KD=Kd/Kₐ.

[6] = molecular target: T2, Cyno nectin-4 ECD-6His (TNT-255); assay: SPR Biacore 8K
Experimental: as §3, §4

[7] = molecular target: T3, Mouse nectin-4 ECD-6His (TNT-250); assay: SPR Biacore 8K
Experimental: as §3, §4

[8] = molecular target: T4, Human nectin-4 ECD-6His (TNT-175); assay: SPR Biacore 8K
Experimental: as §3, §4

[9] = molecular target: T4, Human nectin-4 ECD-6His (TNT-175); assay: SPR Biacore 8K, mAb on protein A; remark: listed apart in the source

Binder	Kd [1]	Kd [2]	Kd [3]	Kd [4]	Kd [5]	Kd [6]	Kd [7]	Kd [8]	Kd [9]	binding result [3]
B1	138 nM	172 nM	196 nM	101 nM	138 nM	172 nM	115 nM	70 nM		
B2	1.77 nM	4.19 nM	5.07 nM	1.37 nM	1.8 nM	4.2 nM	6 nM	1.5 nM	1 nM	
B3	9.88 nM	40.5 nM		8.69 nM	10 nM	40 nM		8 nM		binds

From US20240382610A1 (TALLAC THERAPEUTICS, published 2024)
